# From patent US20140199318A1
# Molecular target: patient IgG preparation from the immunoadsorption column regenerate of an α1-AR agAAB positive patient with mild vascular dementia
# Assay: competition ELISA: free loop1 peptide (0.3 nM to 5 µM) preincubated with patient IgG, binding to immobilised loop1 peptide read
binder,measurement,value
LGYWAFGRVFCN [free (soluble) synthetic peptide corresponding to extracellular loop1 of the human α1-AR],EC50,30 nM
